What is called EC50 is the concentration needed to bring the measured effect to its halfway point. A high value points to a need for much substance. As usually defined, the Kd is a measure of binding affinity in units of concentration. As a reminder, the koff is the first-order rate constant of dissociation. A high value points to fast dissociation. As a reminder, the kon is the rate constant with which the complex forms.

17 molecules from patent US20250320284A1 (AC IMMUNE, published 2025) can be followed below.

Assay [1] deals with T1, human ASC (apoptosis associated speck-like protein containing a caspase-recruitment domain) (human, UniProt Q9ULZ3 1-195).
T1 construct: recombinant hASC in ELISA and SPR; endogenous ASC (cytoplasmic or specks) in Western blot and immunofluorescence; also called hASC; PYCARD
T1 sequence (Q9ULZ3 whole entry, the tested form may be a part): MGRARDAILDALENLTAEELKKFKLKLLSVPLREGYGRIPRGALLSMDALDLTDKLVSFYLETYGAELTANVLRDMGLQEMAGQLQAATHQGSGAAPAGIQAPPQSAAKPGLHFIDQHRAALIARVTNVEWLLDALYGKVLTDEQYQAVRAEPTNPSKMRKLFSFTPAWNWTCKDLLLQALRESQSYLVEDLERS
The assay can be described thus: ELISA, coated hASC.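 Also: antibody binding to plate-coated recombinant human ASC, read as phosphatase substrate absorbance, EC50 from four-parameter variable-slope fit.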 In general terms: In an ELISA, binding on a coated surface is turned into a signal by an enzyme label.

The target of assay [2] is T2, mouse ASC (mouse, UniProt Q9EPB4 1-193).
T2 construct: recombinant mASC in ELISA and SPR; endogenous ASC of J774.A1 cells in Western blot and immunofluorescence; also called mASC
T2 sequence: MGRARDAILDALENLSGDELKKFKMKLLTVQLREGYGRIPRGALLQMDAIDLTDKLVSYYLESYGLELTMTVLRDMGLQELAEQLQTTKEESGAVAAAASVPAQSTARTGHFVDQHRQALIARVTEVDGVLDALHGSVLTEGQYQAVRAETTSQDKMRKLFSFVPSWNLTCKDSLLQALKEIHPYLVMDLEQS
The experiment in a line: ELISA, coated mASC.

Assay [3] has as its target T1, human ASC (apoptosis associated …). The assay can be described thus: SPR, hASC immobilized, Fab in flow.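 Also: hASC amine-coupled on a CM5 chip (about 500 RU), Fab analytes measured by single-cycle kinetics in PBS-P+ running buffer, glycine pH 1.7 regeneration between Fabs.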 Background: Surface plasmon resonance follows binding to a sensor surface in real time, without labels.
Assay [4] concerns the target T3, CARD domain of human ASC (human, UniProt Q9ULZ3 107-195).
T3 construct: biotinylated in BLI; also called hCARD; human CARD
T3 sequence: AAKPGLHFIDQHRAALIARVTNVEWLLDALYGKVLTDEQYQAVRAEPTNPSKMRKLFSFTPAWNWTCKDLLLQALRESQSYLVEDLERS
The experiment in a line: ELISA, coated hCARD.

B1: ACI-8016-1112B3D7-AB1 (antibody, V domains shown)
VH: QVQLQQSGAELVRPGTSVKLSCKASGYTFTSYWMHWVKQRPGQGLEWIGGIDPSDSYTKYNQKFKAKATLTADTSSSTAYMQLSSLTSEDSAIFYCAREEASTVVAHWYFDVWGTGTTVTVSS
VL: DIVLTQSPATLSVTPGDSVSLSCRASQSISNNLHWYQQKSHESPRLLIKYTSQSISGIPSRFSGSGSGTDYTLSINSVETEDFGMYFCQQSNNWPYTFGGGTKLEIK
Regarding B1, in assay [1], the EC50 was 0.07 nM. Moreover, in assay [2], the binding result is reported as “no binding”.

B2: hACI-8016-32B6C7-AB1_H9L3 Fab (Fab, V domains shown)
VH: EVQLVQSGAEVKKPGESLKISCKISGYSFTDQTIHWVHQMPGKGLEWMGYIYPGDGSAMYNEKFQGQVTISADKSISTAYLQWSSLKASDTAMYYCARPLYSYASYYWFAYWGQGTLVTVSS
VL: EIVLTQSPATLSLSPGERATLSCHASQNINVWLSWYQQKPGQAPRLLIYKSSNLHTGIPARFSGSGSGTDFTLTISSLEPEDFAVYYCQQGQSYPLTFGQGTKLEIK
In assay [3], B2 registered a Kd of 0.091 nM, a koff of 8.87e-06 s⁻¹ and a kon of 99100 M⁻¹ s⁻¹.

B3: hACI-8016-32B6C7-AB1_H5L4 Fab (Fab, V domains shown)
VH: QVQLVQSGAEVKKPGSSVKVSCKISGYTFTDQTIHWVRQAPGQGLEWMGYIYPGDGSAMYNEKFQGRVTITADKSTSTAYMELSSLRSEDTAVYYCARPLYSYASYYWFAYWGQGTLVTVSS
VL: EIVLTQSPATLSLSPGERATLSCHASQNINVYLSWYQQKPGQAPRLLIYKSSNLHTGIPARFSGSGSGTDFTLTISSLEPEDFAVYYCQQGQSYPLTFGQGTKLEIK
In assay [3], B3 displayed a Kd of 0.079 nM, a koff of 6.68e-06 s⁻¹ and a kon of 84500 M⁻¹ s⁻¹.

B4: hACI-8016-32B6C7-AB1_H14L3 Fab (Fab, V domains shown)
VH: QVQLVQSGAEVKKPGSSVKVSCKASGYTFTDQTIHWVRQAPGQGLEWMGYIYPGDSSAMYNEKFQGRVTITADKSTSTAYMELSSLRSEDTAVYYCARPLYSYASYYWFAYWGQGTLVTVSS
VL: EIVLTQSPATLSLSPGERATLSCHASQNINVWLSWYQQKPGQAPRLLIYKSSNLHTGIPARFSGSGSGTDFTLTISSLEPEDFAVYYCQQGQSYPLTFGQGTKLEIK
As to B4, in assay [3], the Kd stood at 0.049 nM, the koff came to 4.96e-06 s⁻¹ and the kon stood at 101000 M⁻¹ s⁻¹.

B5: hACI-8016-32B6C7-AB1_H4L3 Fab (Fab, V domains shown)
VH: QVQLVQSGAEVKKPGSSVKVSCKISGYSFTDQTIHWVRQAPGQGLEWMGYIYPGDGSAMYNEKFQGRVTITADKSTSTAYMELSSLRSEDTAVYYCARPLYSYASYYWFAYWGQGTLVTVSS
VL: EIVLTQSPATLSLSPGERATLSCHASQNINVWLSWYQQKPGQAPRLLIYKSSNLHTGIPARFSGSGSGTDFTLTISSLEPEDFAVYYCQQGQSYPLTFGQGTKLEIK
In assay [3], B5 registered a Kd of 0.077 nM, a koff of 8.16e-06 s⁻¹ and a kon of 108000 M⁻¹ s⁻¹.

B6: hACI-8016-32B6C7-AB1_H8L4 Fab (Fab, V domains shown)
VH: QVQLVQSGAEVKKPGSSVKVSCKISGYTFTDQTIHWVRQAPGQGLEWMGYIYPGDASAMYNEKFQGRVTITADKSTSTAYMELSSLRSEDTAVYYCARPLYSYASYYWFAYWGQGTLVTVSS
VL: EIVLTQSPATLSLSPGERATLSCHASQNINVYLSWYQQKPGQAPRLLIYKSSNLHTGIPARFSGSGSGTDFTLTISSLEPEDFAVYYCQQGQSYPLTFGQGTKLEIK
In assay [3], B6 showed a Kd of 0.077 nM, a koff of 7.03e-06 s⁻¹ and a kon of 94000 M⁻¹ s⁻¹.

B7: hACI-8016-32B6C7-AB1_H13L3 Fab (Fab, V domains shown)
VH: EVQLVQSGAEVKKPGESLKISCKISGYSFTDQTIHWVHQMPGKGLEWMGYIYPGDSSAMYNEKFQGQVTISADKSISTAYLQWSSLKASDTAMYYCARPLYSYASYYWFAYWGQGTLVTVSS
VL: EIVLTQSPATLSLSPGERATLSCHASQNINVWLSWYQQKPGQAPRLLIYKSSNLHTGIPARFSGSGSGTDFTLTISSLEPEDFAVYYCQQGQSYPLTFGQGTKLEIK
Consider B7, for which, in assay [3], binding was characterised by a dissociation constant (Kd) of 0.077 nM, the koff worked out at 8.01e-06 s⁻¹ and the kon stood at 105000 M⁻¹ s⁻¹.

B8: hACI-8016-32B6C7-AB1_H13L4 Fab (Fab, V domains shown)
VH: EVQLVQSGAEVKKPGESLKISCKISGYSFTDQTIHWVHQMPGKGLEWMGYIYPGDSSAMYNEKFQGQVTISADKSISTAYLQWSSLKASDTAMYYCARPLYSYASYYWFAYWGQGTLVTVSS
VL: EIVLTQSPATLSLSPGERATLSCHASQNINVYLSWYQQKPGQAPRLLIYKSSNLHTGIPARFSGSGSGTDFTLTISSLEPEDFAVYYCQQGQSYPLTFGQGTKLEIK
In assay [3], B8 registered a Kd of 0.084 nM, a koff of 7.09e-06 s⁻¹ and a kon of 84100 M⁻¹ s⁻¹.

B9: hACI-8016-32B6C7-AB1_H15L3 Fab (Fab, V domains shown)
VH: QVQLVQSGAEVKKPGSSVKVSCKASGYTFTDQTIHWVRQAPGQGLEWMGYIYPGDASAMYNEKFQGRVTITADKSTSTAYMELSSLRSEDTAVYYCARPLYSYASYYWFAYWGQGTLVTVSS
VL: EIVLTQSPATLSLSPGERATLSCHASQNINVWLSWYQQKPGQAPRLLIYKSSNLHTGIPARFSGSGSGTDFTLTISSLEPEDFAVYYCQQGQSYPLTFGQGTKLEIK
In assay [3], B9 had a Kd of 0.052 nM, a koff of 4.82e-06 s⁻¹ and a kon of 103000 M⁻¹ s⁻¹.

B10: hACI-8016-32B6C7-AB1_H7L4 Fab (Fab, V domains shown)
VH: QVQLVQSGAEVKKPGSSVKVSCKISGYTFTDQTIHWVRQAPGQGLEWMGYIYPGDSSAMYNEKFQGRVTITADKSTSTAYMELSSLRSEDTAVYYCARPLYSYASYYWFAYWGQGTLVTVSS
VL: EIVLTQSPATLSLSPGERATLSCHASQNINVYLSWYQQKPGQAPRLLIYKSSNLHTGIPARFSGSGSGTDFTLTISSLEPEDFAVYYCQQGQSYPLTFGQGTKLEIK
On to B10, for which, in assay [3], the affinity, expressed as Kd, was 0.067 nM; the koff came out at 5.62e-06 s⁻¹; the kon was 84300 M⁻¹ s⁻¹.

B11: hACI-8016-32B6C7-AB1_H6L4 Fab (Fab, V domains shown)
VH: QVQLVQSGAEVKKPGSSVKVSCKASGYTFTDQTIHWVRQAPGQGLEWMGYIYPGDGSAMYNEKFQGRVTITADKSTSTAYMELSSLRSEDTAVYYCARPLYSYASYYWFAYWGQGTLVTVSS
VL: EIVLTQSPATLSLSPGERATLSCHASQNINVYLSWYQQKPGQAPRLLIYKSSNLHTGIPARFSGSGSGTDFTLTISSLEPEDFAVYYCQQGQSYPLTFGQGTKLEIK
In the case of B11, in assay [3], the Kd amounted to 0.067 nM, the koff was found to be 5.28e-06 s⁻¹ and the kon was 79200 M⁻¹ s⁻¹.

B12: hACI-8016-32B6C7-AB1_H6L3 Fab (Fab, V domains shown)
VH: QVQLVQSGAEVKKPGSSVKVSCKASGYTFTDQTIHWVRQAPGQGLEWMGYIYPGDGSAMYNEKFQGRVTITADKSTSTAYMELSSLRSEDTAVYYCARPLYSYASYYWFAYWGQGTLVTVSS
VL: EIVLTQSPATLSLSPGERATLSCHASQNINVWLSWYQQKPGQAPRLLIYKSSNLHTGIPARFSGSGSGTDFTLTISSLEPEDFAVYYCQQGQSYPLTFGQGTKLEIK
As for B12, in assay [3], the Kd was 0.086 nM, the koff was determined as 7.52e-06 s⁻¹ and the kon came to 87200 M⁻¹ s⁻¹.

B13: hACI-8016-32B6C7-AB1_H9L4 Fab (Fab, V domains shown)
VH: EVQLVQSGAEVKKPGESLKISCKISGYSFTDQTIHWVHQMPGKGLEWMGYIYPGDGSAMYNEKFQGQVTISADKSISTAYLQWSSLKASDTAMYYCARPLYSYASYYWFAYWGQGTLVTVSS
VL: EIVLTQSPATLSLSPGERATLSCHASQNINVYLSWYQQKPGQAPRLLIYKSSNLHTGIPARFSGSGSGTDFTLTISSLEPEDFAVYYCQQGQSYPLTFGQGTKLEIK
In assay [3], B13 came in with a Kd of 0.081 nM, a koff of 7.52e-06 s⁻¹ and a kon of 92000 M⁻¹ s⁻¹.

B14: hACI-8016-32B6C7-AB1_H2L3 Fab (Fab, V domains shown)
VH: EVQLVQSGAEVKKPGESLKISCKISGYTFTDQTIHWVHQMPGKGLEWMGYIYPGDGSAMYNEKFQGQVTISADKSISTAYLQWSSLKASDTAMYYCARPLYSYASYYWFAYWGQGTLVTVSS
VL: EIVLTQSPATLSLSPGERATLSCHASQNINVWLSWYQQKPGQAPRLLIYKSSNLHTGIPARFSGSGSGTDFTLTISSLEPEDFAVYYCQQGQSYPLTFGQGTKLEIK
Take B14: in assay [3], the Kd turned out to be 0.105 nM, the koff was 8.64e-06 s⁻¹ and the kon was found to be 82200 M⁻¹ s⁻¹.

B15: ACI-8018-2221B7F1-AB1 (antibody, V domains shown)
VH: EVQLVESGGGLVKPGGSLKLSCAASGFTFSDSYMYWLRQTPEKRLEWVASISDGGRYTYYSDSVKGRFTISRDNVKNNLYLQMTSLRSEDTAIYYCARGLDYWGQGTTLTVSS
VL: DIKMTQSPSSMYASLGERVTITCKASQDINSYLSWFQQKPGKSPKTLIYRANRLVDGVPSRFSGSGSGQDYSLTISSLEYEDMGIYYCLQYAESTWTFGGGTKLEIK
B15 registered an EC50 in assay [1] of 0.14 nM. Besides, the binding result in assay [2] is “no binding”.

B16: ACI-8016-2614C3B2-AB1 (antibody, V domains shown)
VH: QVQLQQSDAELVKPGASVKISCKVSGYALTDHSIHWMKQRPEQGLAWIGYMYPGDGSANYNDKFKGKATLTADISSSTAYMQLNSLTSEDSAVYFCTRPYYFGSSYDYFGYWGQGTTLTVSS
VL: DIQMNQSPSSLSASLGDTITITCHASQNINVWLSWYQQKPGNVPKLLIYKASKLHTGVSSNFSGSGSGTGFTLTISSLQPEDIGTYYCQQGQSYPYTFGGGTKLEIK
As to B16, the figures for the EC50 in assay [1], in assay [2] and in assay [4] were 1.98 nM, 2.67 nM and 2.21 nM, respectively.

B17: ACI-8016-32B6C7-AB1 chimeric Fab (Fab, V domains shown)
VH: QVQLQQSDAELVKPGASVKISCKISGYTFTDQTIHWMNQRPEQGLEWIGYIYPGDGSAMYNEKFRGKATLTADKSSSTAYMQLNSLTSEDSAVYFCARPLYSYASYYWFAYWGQGTLVTVSA
VL: DIQMNQSPSSLSASLGDTITITCHASQNINVWLSWYQRKPGNIPKLLIYKSSNLHTGVPSRFSGSGSGTGFTLTISSLQPEDIATYYCQQGQSYPLTFGGGTKLEIK
notes: Fab
In assay [3], B17 had a Kd of 1.01 nM, a koff of 2.11e-05 s⁻¹ and a kon of 20900 M⁻¹ s⁻¹.
